{
  "source": "paper PMC6323126",
  "about": "“Architecture, substructures, and dynamic assembly of STRIPAK complexes in Hippo signaling” (Cell Discovery, 2019)",
  "binders": {"B1": {"name": "STRN3 coiled-coil domain (CC, amino acid residues 64–145) (domain or fragment, human, UniProt Q13033 64-145, looked up)", "chain": "TIPGILHYIQHEWARFEMERAHWEVERAELQARIAFLQGERKGQENLKKDLVRRIKMLEYALKQERAKYHKLKYGTELNQGD", "notes": "also called STRN3 CC; source: E. coli BL21 (DE3) CodonPlus, purified"}, "B2": {"name": "STRIP1 (765–837) (domain or fragment, UniProt Q5VSL9 765-837, looked up)", "chain": "QAEECALRANIERFNARRYDRAHSNPDFLPVDNCLQSVLGQRVDLPEDFQMNYDLWLEREVFSKPISWEELLQ"}, "B3": {"name": "STRN3 peptide (residues 166–190) (peptide, UniProt Q13033 166-190, looked up)", "peptide": "QNSQLTWKQGRQLLRQYLQEVGYTD"}, "B4": {"name": "SIKE1 second coiled-coil (CC2) region, residues 72–121 (domain or fragment, human, UniProt Q9BRV8 72-121, looked up)", "chain": "LLSQENTQIRDLQQENRELWISLEEHQDALELIMSKYRKQMLQLMVAKKA", "notes": "Homotetramer in the apo crystal, homodimer in the crystal with the STRN3 peptide; A Se-Met form was used for phasing; also called SIKE1 CC2; source: E. coli BL21 (DE3) CodonPlus, purified"}, "B5": {"name": "STRN3 fragment (residues 64–341), tag not told (domain or fragment, human, UniProt Q13033 64-341, looked up)", "chain": "TIPGILHYIQHEWARFEMERAHWEVERAELQARIAFLQGERKGQENLKKDLVRRIKMLEYALKQERAKYHKLKYGTELNQGDLKMPTFESEETKDTEAPTAPQNSQLTWKQGRQLLRQYLQEVGYTDTILDVRSQRVRSLLGLSNSEPNGSVETKNLEQILNGGESPKQKGQEIKRSSGDVLETFNFLENADDSDEDEENDMIEGIPEGKDKHRMNKHKIGNEGLAADLTDDPDTEEALKEFDFLVTAEDGEGAGEARSSGDGTEWDKDDLSPTAEVW", "notes": "source: E. coli BL21 (DE3) CodonPlus, purified"}, "B6": {"name": "MST2 (recombinant, wildtype) (enzyme, human, UniProt Q13188 1-491, looked up)", "chain": "MEQPPAPKSKLKKLSEDSLTKQPEEVFDVLEKLGEGSYGSVFKAIHKESGQVVAIKQVPVESDLQEIIKEISIMQQCDSPYVVKYYGSYFKNTDLWIVMEYCGAGSVSDIIRLRNKTLIEDEIATILKSTLKGLEYLHFMRKIHRDIKAGNILLNTEGHAKLADFGVAGQLTDTMAKRNTVIGTPFWMAPEVIQEIGYNCVADIWSLGITSIEMAEGKPPYADIHPMRAIFMIPTNPPPTFRKPELWSDDFTDFVKKCLVKNPEQRATATQLLQHPFIKNAKPVSILRDLITEAMEIKAKRHEEQQRELEEEEENSDEDELDSHTMVKTSVESVGTMRATSTMSEGAQTMIEHNSTMLESDLGTMVINSEDEEEEDGTMKRNATSPQVQRPSFMDYFDKQDFKNKSHENCNQNMHEPFPMSKNVFPDNWKVPQDGDFDFLKNLSLEELQMRLKALDPMMEREIEELRQRYTAKRQPILDAMDAKKRRQQNF", "notes": "MST2 (STK3), human; also called STK3; Hippo kinase MST2; source: E. coli BL21 (DE3) CodonPlus, purified"}, "B7": {"name": "MST4 (recombinant) (enzyme)", "chain": "not shown", "notes": "MST4 (STK26), human; also called STK26; source: E. coli BL21 (DE3) CodonPlus, purified"}, "B8": {"name": "GST-tagged MST2 (enzyme, human, UniProt Q13188 1-491, looked up)", "chain": "B6 chain", "notes": "MST2 (STK3), human; also called MST2/pMST2; source: E. coli BL21 (DE3) CodonPlus, purified; not shown: GST, N-terminal, kept"}, "B9": {"name": "MST2 kinase domain (residues 1–308) (domain or fragment, human, UniProt Q13188 1-308, looked up)", "chain": "MEQPPAPKSKLKKLSEDSLTKQPEEVFDVLEKLGEGSYGSVFKAIHKESGQVVAIKQVPVESDLQEIIKEISIMQQCDSPYVVKYYGSYFKNTDLWIVMEYCGAGSVSDIIRLRNKTLIEDEIATILKSTLKGLEYLHFMRKIHRDIKAGNILLNTEGHAKLADFGVAGQLTDTMAKRNTVIGTPFWMAPEVIQEIGYNCVADIWSLGITSIEMAEGKPPYADIHPMRAIFMIPTNPPPTFRKPELWSDDFTDFVKKCLVKNPEQRATATQLLQHPFIKNAKPVSILRDLITEAMEIKAKRHEEQQRE", "notes": "also called kinase domain of MST2; source: E. coli BL21 (DE3) CodonPlus, purified"}, "B10": {"name": "MST4 kinase domain (residues 1–300) (domain or fragment)", "chain": "not shown", "notes": "MST4 (STK26), human, residues 1-300; also called N-terminal kinase domain of MST4; source: E. coli BL21 (DE3) CodonPlus, purified"}, "B11": {"name": "MBP-tagged STRN3 fragment (residues 64–341) (domain or fragment, human, UniProt Q13033 64-341, looked up)", "chain": "B5 chain", "notes": "source: E. coli BL21 (DE3) CodonPlus, purified; not shown: MBP, N-terminal, kept"}, "B12": {"name": "MST2 middle linker region (residues 308–435) (domain or fragment, human, UniProt Q13188 308-435, looked up)", "chain": "ELEEEEENSDEDELDSHTMVKTSVESVGTMRATSTMSEGAQTMIEHNSTMLESDLGTMVINSEDEEEEDGTMKRNATSPQVQRPSFMDYFDKQDFKNKSHENCNQNMHEPFPMSKNVFPDNWKVPQDG", "notes": "also called linker region of MST2; source: E. coli BL21 (DE3) CodonPlus, purified"}, "B13": {"name": "SIKE1 CC1 (residues 5–65) (domain or fragment, human, UniProt Q9BRV8 5-65, looked up)", "chain": "IEKILTDAKTLLERLREHDAAAESLVDQSAALHRRVAAMREAGTALPDQYQEDASDMKDMS", "notes": "SIKE1, human, residues 5-65; Homodimer within the 2:2 crystal complex; also called residues 5–65 of SIKE1; source: E. coli BL21 (DE3) CodonPlus, purified"}},
  "key": {"[1]": {"biological_target": "B10", "assay": "pull-down; pulldown with purified recombinant proteins shown in supplementary figures; whether GST or MBP and who carried the tag not told", "conditions": "both partners purified"}, "[2]": {"biological_target": "T1, C-terminal domain (residues 421–837) of STRIP1, recombinant (UniProt Q5VSL9 421-837)", "T1 sequence (looked up)": "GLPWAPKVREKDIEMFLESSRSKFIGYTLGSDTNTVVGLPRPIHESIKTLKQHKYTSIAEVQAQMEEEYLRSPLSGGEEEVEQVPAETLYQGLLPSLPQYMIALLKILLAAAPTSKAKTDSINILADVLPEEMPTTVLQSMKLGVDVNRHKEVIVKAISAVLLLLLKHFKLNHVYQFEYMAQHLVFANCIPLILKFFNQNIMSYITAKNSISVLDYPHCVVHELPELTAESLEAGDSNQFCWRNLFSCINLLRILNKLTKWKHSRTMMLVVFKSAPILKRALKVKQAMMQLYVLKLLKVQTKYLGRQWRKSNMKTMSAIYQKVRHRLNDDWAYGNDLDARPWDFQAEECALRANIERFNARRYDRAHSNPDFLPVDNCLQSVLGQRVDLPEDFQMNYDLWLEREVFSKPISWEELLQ", "assay": "pull-down; pulldown with purified recombinant proteins shown in supplementary figures; whether GST or MBP and who carried the tag not told", "conditions": "both partners purified"}, "[3]": {"biological_target": "B6", "assay": "pull-down; GST pulldown: GST-tagged protein, partner and glutathione Sepharose mixed at 4 °C for 1 h in 20 mM HEPES (pH 7.5), 100 mM NaCl; eluted with 20 mM reduced glutathione; SDS-PAGE, Coomassie staining", "conditions": "both partners purified"}, "[4]": {"biological_target": "T2, STRIP1 (full-length, His-tagged, insect cells) (UniProt Q5VSL9 1-837)", "T2 construct": "STRIP1, full length; His tag is TEV-cleavable; also called His-STRIP1; FAM40A; source: High Five insect cells (baculovirus), purified", "assay": "pull-down; MBP pulldown: MBP-tagged protein, partner and amylose resin mixed at 4 °C for 1 h in 20 mM HEPES (pH 7.5), 100 mM NaCl; eluted with 20 mM maltose; SDS-PAGE, Coomassie staining", "conditions": "both partners purified"}, "[5]": {"biological_target": "B1", "assay": "ITC; iTC200, 25 °C, 20 mM HEPES (pH 7.5), 100 mM NaCl", "conditions": "both partners purified"}, "[6]": {"biological_target": "B4", "assay": "ITC; iTC200, 25 °C, 20 mM HEPES (pH 7.5), 100 mM NaCl", "conditions": "both partners purified"}, "[7]": {"biological_target": "B4", "assay": "crystal structure; SIKE1 CC2 mixed with STRN3 peptide (166–190) at 1:1.2 molar ratio, 1.75 Å; 35% MPD, 0.1 M imidazole (pH 7.5), 16 °C", "conditions": "both partners purified"}, "[8]": {"biological_target": "the molecule itself", "assay": "crystal structure; apo SIKE1 CC2, 1.5 Å; 0.1 M Tris (pH 8.5), 0.7 M ammonium tartrate dibasic, 16 °C"}, "[9]": {"biological_target": "the molecule itself", "assay": "crystal structure; SIKE1 CC2 mixed with STRN3 peptide (166–190) at 1:1.2 molar ratio, 1.75 Å; 35% MPD, 0.1 M imidazole (pH 7.5), 16 °C"}, "[10]": {"biological_target": "T2, STRIP1 (full-length, His-tagged, insect …)", "assay": "pull-down; GST pulldown: GST-tagged protein, partner and glutathione Sepharose mixed at 4 °C for 1 h in 20 mM HEPES (pH 7.5), 100 mM NaCl; eluted with 20 mM reduced glutathione; SDS-PAGE, Coomassie staining", "conditions": "both partners purified"}, "[11]": {"biological_target": "T2, STRIP1 (full-length, His-tagged, insect …)", "assay": "pull-down; pulldown with the kinase dephosphorylated with λPPase and then autophosphorylated with ATP (and magnesium ion)", "conditions": "both partners purified"}, "[12]": {"biological_target": "T2, STRIP1 (full-length, His-tagged, insect …)", "assay": "pull-down; pulldown with purified recombinant proteins shown in supplementary figures; whether GST or MBP and who carried the tag not told", "conditions": "both partners purified"}, "[13]": {"biological_target": "T3, FHA domain (residues 5–135) of SLMAP (human, UniProt Q14BN4 5-135)", "T3 construct": "also called SLMAP (FHA); SLMAP FHA domain; source: E. coli BL21 (DE3) CodonPlus, purified", "T3 sequence (looked up)": "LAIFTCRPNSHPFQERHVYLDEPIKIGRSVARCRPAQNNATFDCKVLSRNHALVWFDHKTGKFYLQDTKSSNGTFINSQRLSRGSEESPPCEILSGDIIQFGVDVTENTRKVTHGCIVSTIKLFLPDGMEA", "assay": "pull-down; GST pulldown: GST-tagged protein, partner and glutathione Sepharose mixed at 4 °C for 1 h in 20 mM HEPES (pH 7.5), 100 mM NaCl; eluted with 20 mM reduced glutathione; SDS-PAGE, Coomassie staining", "conditions": "both partners purified"}, "[14]": {"biological_target": "the molecule itself", "assay": "crystal structure; SIKE1 CC1-SLMAP CC1 complex reconstituted 1:1 and gel-filtered, 2.3 Å; 0.1 M sodium citrate (pH 5.5), 15% PEG 6000, 16 °C"}},
  "data": [
    {"binder": "B1", "values": [
      {"measurement": "binding result", "setting": "[1]", "result": "binds"},
      {"measurement": "binding result", "setting": "[2]", "result": "binds"},
      {"measurement": "binding result", "setting": "[3]", "result": "binds"},
      {"measurement": "binding result", "setting": "[4]", "result": "binds"}
    ]},
    {"binder": "B2", "values": [
      {"measurement": "Kd", "setting": "[5]", "result": 1600, "unit": "nM"}
    ]},
    {"binder": "B3", "values": [
      {"measurement": "Kd", "setting": "[6]", "result": 2900, "unit": "nM"},
      {"measurement": "stoichiometry N", "setting": "[7]", "result": "2 SIKE1 CC2 per STRN3 peptide"}
    ]},
    {"binder": "B4", "values": [
      {"measurement": "stoichiometry N", "setting": "[8]", "result": 4},
      {"measurement": "stoichiometry N", "setting": "[9]", "result": 2}
    ]},
    {"binder": "B5", "values": [
      {"measurement": "binding result", "setting": "[3]", "result": "binds"}
    ]},
    {"binder": "B6", "values": [
      {"measurement": "binding result", "setting": "[10]", "result": "binds"}
    ]},
    {"binder": "B7", "values": [
      {"measurement": "binding result", "setting": "[10]", "result": "binds"}
    ]},
    {"binder": "B8", "values": [
      {"measurement": "binding result", "setting": "[11]", "result": "binds"}
    ]},
    {"binder": "B9", "values": [
      {"measurement": "binding result", "setting": "[4]", "result": "binds"}
    ]},
    {"binder": "B10", "values": [
      {"measurement": "binding result", "setting": "[12]", "result": "binds"}
    ]},
    {"binder": "B11", "values": [
      {"measurement": "binding result", "setting": "[4]", "result": "binds"}
    ]},
    {"binder": "B12", "values": [
      {"measurement": "binding result", "setting": "[13]", "result": "binds"}
    ]},
    {"binder": "B13", "values": [
      {"measurement": "stoichiometry N", "setting": "[14]", "result": 2}
    ]}
  ]
}
